Assay results published in patent CN109678957A.

Target: 人重组TSLP蛋白 (recombinant human TSLP protein from E. coli GDMCC No:60083) (human) (UniProt Q969D9)
Assay: ELISA, dilution series of the antibody on TSLP antigen protein (Fig. 4)

Chain of UniProt Q969D9 (Q969D9 29-159 limits assumed): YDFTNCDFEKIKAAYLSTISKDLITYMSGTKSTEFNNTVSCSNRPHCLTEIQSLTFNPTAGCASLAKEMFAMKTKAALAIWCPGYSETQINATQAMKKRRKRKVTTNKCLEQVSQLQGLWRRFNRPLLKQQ

- 效价 (titer, dilution fold at which OD is more than 2 times the negative control) (倍 (dilution fold)): 655000
B1: 抗人TSLP单克隆抗体 (anti-human TSLP monoclonal antibody, from hybridoma ascites, Example 3) (antibody, IgG1, V domains shown)
VH: QIQLVQSGPELKKPGETVKISCKASGYTFTNYGMNWVKQAPGKGLKWMGWINTYTGEPTYADDFKGRFAFSLETSASTAYLQINNLKNEDMATYFCARGLTGTRGRFAYWGQGTLVTVSA
VL: DIVMTQSHKFMSTSVGDRVSITCKASQDVSTAVAWYQQKPGQSPKLLIYWASTRHTGVPDRFTGSGSGTDYTLTISSVQAEDLALYYCQQHYSTPPTFGGGTKLEIK
